The source of these data is the Human Domainome abundance scans (Beltran et al. 2025).

± gives the uncertainty stated by the source.

To fix the notation:
B1: CD2-associated protein, residues 271 to 331; numbered along this chain, Q9Y5K6 (parent)
chain: KEYCRTLFAYEGTNEDELTFKEGEIIHLISKETGEAGWWRGELNGKEGVFPDNFAVQINEL

In the data set the parent is B1. Kind of data set: abundance fitness (aPCA) (normalised: wild type 0, dead -1); higher = more abundant; growth selection in yeast, the domain comes from the species named. The settings on record: Homo sapiens.
KEYCRTLFAYEGTNEDELTFKEGEIIHLISKETGEAGWWRGELNGKEGVFPDNFAVIINEL [Q57I]: the abundance fitness is -0.006 ± 0.093.

With KEYCRTLFAYEGTNEDELTFKEGEWIHLISKETGEAGWWRGELNGKEGVFPDNFAVQINEL [I25W], the abundance fitness was -0.75 ± 0.14.

In the case of KEYCRTLFAYEGTNEDELTFKEGERIHLISKETGEAGWWRGELNGKEGVFPDNFAVQINEL [I25R], the abundance fitness is -0.372 ± 0.053. In the case of KEYCRTLFAYEGTNEDELTFKEGEIIHVISKETGEAGWWRGELNGKEGVFPDNFAVQINEL [L28V] it was -0.005 ± 0.077; in that of KEYCRTPFAYEGTNEDELTFKEGEIIHLISKETGEAGWWRGELNGKEGVFPDNFAVQINEL [L7P], -1.01 ± 0.15; in that of KEYCRTWFAYEGTNEDELTFKEGEIIHLISKETGEAGWWRGELNGKEGVFPDNFAVQINEL [L7W], -0.539 ± 0.098. Then KEYCRTLFAYEGTNEDELTFKEGEIIHLISKETGEAGWWRGELNGKEGVFPDNFAVQINLL [E60L], with -0.296 ± 0.086; and KEYCRTLFAYEGTNEDELTFKEGEIIHLISKETGEAGWWRGELNGKEGVFPDNFAVQINQL [E60Q], with -0.115 ± 0.14; and KEYCRTLFAYEGTNEDELTFKEGEIIHLISKETGEAGWWRGELNGKEGVFPDNFAVQINCL [E60C], with -0.127 ± 0.12. In the case of KEYCRTLFAYEGTNEDELTFPEGEIIHLISKETGEAGWWRGELNGKEGVFPDNFAVQINEL [K21P] it was -0.242 ± 0.09; in that of KEYCRTLFAYEGTNEDELTFQEGEIIHLISKETGEAGWWRGELNGKEGVFPDNFAVQINEL [K21Q], -0.139 ± 0.075. In the case of KEYCRTLFAYEGTNEDELTFKEGEIIHLISKETGEAGWWRGELNGKEGVFPPNFAVQINEL [D52P], the abundance fitness is -0.081 ± 0.12.

On to KEYCRTLFAYEGTNEDELTFKEGEIIHLISKETGEAGWWRGELNGKEGVFPDNPAVQINEL [F54P], for which the abundance fitness was -0.572 ± 0.12. In the case of KEYCRTLFAYEGTNEDELTFKEGEIIHLISKETGEAGWWRGELNGKEGVFPDNNAVQINEL [F54N] it was -0.625 ± 0.3; in that of KEYCRTLFAYEGTNEDELTFKEGEIIHLISKETGEAGWWRGELNGKEGVFPDNHAVQINEL [F54H], -0.018 ± 0.1. Then KEYCRTLFAYEGTNEDELWFKEGEIIHLISKETGEAGWWRGELNGKEGVFPDNFAVQINEL [T19W], with -0.555 ± 0.19. Then KEYCRTLFAYEGTNEDELCFKEGEIIHLISKETGEAGWWRGELNGKEGVFPDNFAVQINEL [T19C], with -0.287 ± 0.064; and KEFCRTLFAYEGTNEDELTFKEGEIIHLISKETGEAGWWRGELNGKEGVFPDNFAVQINEL [Y3F], with 0.001 ± 0.11. Consider KEHCRTLFAYEGTNEDELTFKEGEIIHLISKETGEAGWWRGELNGKEGVFPDNFAVQINEL [Y3H], for which the abundance fitness was -0.278 ± 0.26. Then KEYCRTLFAYEGTNEDELTFKEGEIIHLISKETGEAGWWRGELNGKEGVFPDWFAVQINEL [N53W], with -0.355 ± 0.14. In the case of KEYCRTLFAYEGTNEDELTFKEGEIIHLISKEQGEAGWWRGELNGKEGVFPDNFAVQINEL [T33Q] it was -0.451 ± 0.09; in that of KEYCRTLFAYEGTNEPELTFKEGEIIHLISKETGEAGWWRGELNGKEGVFPDNFAVQINEL [D16P], -0.738 ± 0.086; in that of KEYCRTLFAYEGTNEDELTFKEGEIIHLISKETGEAGWMRGELNGKEGVFPDNFAVQINEL [W39M], -0.278 ± 0.1. Then KEYCRTLFAYEGTNEDELTFKEGEIIHLISKETNEAGWWRGELNGKEGVFPDNFAVQINEL [G34N], with -0.426 ± 0.42. Regarding KTYCRTLFAYEGTNEDELTFKEGEIIHLISKETGEAGWWRGELNGKEGVFPDNFAVQINEL [E2T], the abundance fitness was -0.121 ± 0.083. As for KEYCRTLFAYEGTNEDELTFKEGEIIHLISPETGEAGWWRGELNGKEGVFPDNFAVQINEL [K31P], the abundance fitness was -0.703 ± 0.17. In the case of KEYCRTLFAYEGTNEDELTFKEGEIIHLISYETGEAGWWRGELNGKEGVFPDNFAVQINEL [K31Y] it was -0.634 ± 0.076. Then KEYCRTLFAYEGTNEDELTFKEGEIIHLISTETGEAGWWRGELNGKEGVFPDNFAVQINEL [K31T], with -0.024 ± 0.062; and KEYCRTLFAYEGTNEDELTFKEGEIIHLISAETGEAGWWRGELNGKEGVFPDNFAVQINEL [K31A], with -0.635 ± 0.11. In the case of KEYCRTLFAYEGTNEDELTFKEGEIIHLISKETGCAGWWRGELNGKEGVFPDNFAVQINEL [E35C] it was -0.027 ± 0.12; in that of KEYCRTLFAYEGTNEDELTFKEGEIIHLISKETGSAGWWRGELNGKEGVFPDNFAVQINEL [E35S], 0.034 ± 0.07; in that of KEYCRTLFAYEGTNEDELTFKEGEIIHLISKETGEAGWWRGFLNGKEGVFPDNFAVQINEL [E42F], -0.569 ± 0.2. For the variant KEYCRTLFAYEGTNEDELTFKEGEIIHLISKETGEAGWWRGYLNGKEGVFPDNFAVQINEL [E42Y], the abundance fitness is -0.567 ± 0.18. Then KEYCRTLFAYEGTNEDELTFKQGEIIHLISKETGEAGWWRGELNGKEGVFPDNFAVQINEL [E22Q], with -0.081 ± 0.086. Then KEYCRTLFAYEGTNEDELTFKEGEIIHLISKNTGEAGWWRGELNGKEGVFPDNFAVQINEL [E32N], with 0.085 ± 0.064; and KEYCRTLFAYEGTNEDELTFKEGEIIHLISKLTGEAGWWRGELNGKEGVFPDNFAVQINEL [E32L], with -0.481 ± 0.048; and KEYCRTLFAYEGTNEDELTFKEGEIIHLISKETGEAGWWRGELNGKEGVFPDNFAYQINEL [V56Y], with -0.409 ± 0.16. With KEYCRTLFAYEGTNEDELTFKEGEIIHLISKETGEAGWWRGELNGKEGVFPDNFAPQINEL [V56P], the abundance fitness is -0.567 ± 0.25. Then KEYCRTLFAYEGTNEDELTFKEGEIIHLISKETGEAGWWRGELNGKEGVFNDNFAVQINEL [P51N], with -0.582 ± 0.16; and KEYCRTLFAYEGTNEDELTFKEGEIIHLISKETGEAGWWRGELNGKEGVFDDNFAVQINEL [P51D], with -0.487 ± 0.15; and KEYCRTLFAYEGTNEDELTFKEGEIIHLISKETGEAGWWRGELNGKEGVFPDNFAVQHNEL [I58H], with -0.234 ± 0.09. Then KEYCRTLFAYEGTNEDELTFKEGEIRHLISKETGEAGWWRGELNGKEGVFPDNFAVQINEL [I26R], with -0.829 ± 0.09. Then KEYCRTLFAYEGTNEDELTFKEGEIAHLISKETGEAGWWRGELNGKEGVFPDNFAVQINEL [I26A], with -0.82 ± 0.14. As for KEYCRTLFAYEGTNEDELTFKEGEIIHLISKETGEAGWWRGELNGKEGQFPDNFAVQINEL [V49Q], the abundance fitness is -0.302 ± 0.077.
